Like-named read-outs stand apart in the source and are kept apart here.
T1: human MICA-Fc (human, UniProt Q29983 24-307, limits assumed)
T1 construct: Bought from R&D Systems; also called recombinant human MICA-Fc; not shown: Fc part (detected with anti-human Fc)
T1 sequence (looked up): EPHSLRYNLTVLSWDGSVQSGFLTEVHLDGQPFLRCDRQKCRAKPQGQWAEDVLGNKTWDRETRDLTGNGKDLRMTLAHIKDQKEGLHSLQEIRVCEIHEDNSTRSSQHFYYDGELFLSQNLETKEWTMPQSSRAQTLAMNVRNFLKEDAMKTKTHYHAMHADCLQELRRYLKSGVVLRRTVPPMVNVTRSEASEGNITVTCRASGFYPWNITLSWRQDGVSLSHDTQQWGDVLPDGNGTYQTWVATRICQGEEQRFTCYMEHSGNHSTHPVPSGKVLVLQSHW

T2: human MICB-Fc (human, UniProt Q29980 23-298, limits assumed)
T2 construct: Bought from R&D Systems; also called recombinant human MICB-Fc; not shown: Fc part (detected with anti-human Fc)
T2 sequence (looked up): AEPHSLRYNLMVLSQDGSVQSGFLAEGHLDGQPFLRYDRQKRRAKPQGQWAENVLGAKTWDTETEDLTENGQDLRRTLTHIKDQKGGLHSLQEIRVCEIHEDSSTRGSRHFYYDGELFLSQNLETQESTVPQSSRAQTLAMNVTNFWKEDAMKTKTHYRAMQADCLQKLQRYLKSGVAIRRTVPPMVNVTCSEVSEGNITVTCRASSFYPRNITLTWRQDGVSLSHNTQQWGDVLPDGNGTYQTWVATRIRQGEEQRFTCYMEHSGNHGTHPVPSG

T3: human Fc-NKG2D (human, UniProt P26718 78-216)
T3 construct: range 78-216; Bought from R&D Systems: a recombinant fusion protein of human Fc and the extracellular domain (amino acids 78-216) of human NKG2D; also called human NKG2D (immobilized); not shown: human Fc
T3 sequence (looked up): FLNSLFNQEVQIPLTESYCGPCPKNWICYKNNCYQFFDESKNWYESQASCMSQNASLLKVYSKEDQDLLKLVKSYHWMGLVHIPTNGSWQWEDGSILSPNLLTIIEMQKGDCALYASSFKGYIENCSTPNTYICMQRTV

T4: mouse Fc-NKG2D (mouse, UniProt O54709 94-232, limits assumed)
T4 construct: Bought from R&D Systems; also called mouse NKG2D; not shown: Fc part
T4 sequence (looked up): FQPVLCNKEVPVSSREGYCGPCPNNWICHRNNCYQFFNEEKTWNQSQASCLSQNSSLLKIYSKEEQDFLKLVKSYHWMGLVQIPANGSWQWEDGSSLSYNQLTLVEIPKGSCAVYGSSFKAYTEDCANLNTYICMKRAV

T5: human CD22-Fc (human, UniProt P20273 20-687)
T5 construct: Bought from R&D Systems; not shown: Fc part
T5 sequence (looked up): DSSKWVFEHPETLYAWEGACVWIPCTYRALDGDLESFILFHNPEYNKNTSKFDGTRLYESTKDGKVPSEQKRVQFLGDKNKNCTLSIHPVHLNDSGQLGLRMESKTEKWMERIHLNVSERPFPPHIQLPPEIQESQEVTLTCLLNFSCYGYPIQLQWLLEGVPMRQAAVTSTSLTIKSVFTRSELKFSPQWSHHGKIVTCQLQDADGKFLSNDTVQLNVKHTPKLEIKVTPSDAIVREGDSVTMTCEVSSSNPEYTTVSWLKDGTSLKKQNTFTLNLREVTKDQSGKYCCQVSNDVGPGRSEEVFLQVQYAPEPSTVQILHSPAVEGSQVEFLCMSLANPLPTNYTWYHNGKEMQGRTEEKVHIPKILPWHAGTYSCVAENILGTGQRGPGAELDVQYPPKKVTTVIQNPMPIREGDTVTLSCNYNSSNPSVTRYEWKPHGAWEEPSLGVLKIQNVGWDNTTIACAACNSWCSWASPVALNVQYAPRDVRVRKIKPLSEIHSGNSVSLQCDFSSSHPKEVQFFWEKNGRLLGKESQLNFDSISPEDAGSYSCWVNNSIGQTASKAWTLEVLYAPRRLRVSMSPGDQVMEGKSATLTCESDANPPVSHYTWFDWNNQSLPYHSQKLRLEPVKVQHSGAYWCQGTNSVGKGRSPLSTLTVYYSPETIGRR

T6: human CD23 (human, UniProt P06734 150-321, limits assumed)
T6 construct: Bought
T6 sequence (looked up): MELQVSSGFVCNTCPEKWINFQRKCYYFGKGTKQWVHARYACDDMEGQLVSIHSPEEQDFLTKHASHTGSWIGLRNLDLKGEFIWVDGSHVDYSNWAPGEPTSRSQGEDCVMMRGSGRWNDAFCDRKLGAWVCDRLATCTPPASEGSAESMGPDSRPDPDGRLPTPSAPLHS

B1: human NKG2D, cell surface (receptor, UniProt P26718 1-216, looked up)
chain: MGWIRGRRSRHSWEMSEFHNYNLDLKKSDFSTRWQKQRCPVVKSKCRENASPFFFCCFIAVAMGIRFIIMVTIWSAVFLNSLFNQEVQIPLTESYCGPCPKNWICYKNNCYQFFDESKNWYESQASCMSQNASLLKVYSKEDQDLLKLVKSYHWMGLVHIPTNGSWQWEDGSILSPNLLTIIEMQKGDCALYASSFKGYIENCSTPNTYICMQRTV
notes: whole, on cells; also called cell surface human NKG2D
B2: human ULBP2-Fc (Fc fusion, UniProt Q9BZM5 26-217, looked up)
chain: GRADPHSLCYDITVIPKFRPGPRWCAVQGQVDEKTFLHYDCGNKTVTPVSPLGKKLNVTTAWKAQNPVLREVVDILTEQLRDIQLENYTPKEPLTLQARMSCEQKAEGHSSGSWQFSFDGQIFLLFDSEKRMWTTVHPGARKMKEKWENDKVVAMSFHYFSMGDCIGWLEDFLMGMDSTLEPSAGAPLAMSS
notes: Bought from R&D Systems; also called recombinant human ULBP2-Fc; not shown: Fc part (detected with anti-human Fc)

Assays:
human MICA-Fc = molecular target: T1, human MICA-Fc; assay: whole-cell ELISA on HEK 293F/human NKG2D, 100 ng ligand-Fc, detected with biotinylated goat anti-human Fc and streptavidin-HRP, absorbance at 405 nm [panel MICA]
human MICB-Fc = molecular target: T2, human MICB-Fc; assay: whole-cell ELISA on HEK 293F/human NKG2D, 100 ng ligand-Fc, detected with biotinylated goat anti-human Fc and streptavidin-HRP, absorbance at 405 nm [panel MICB]
[1] = molecular target: B1; assay: whole-cell ELISA on HEK 293F/human NKG2D, 100 ng ligand-Fc, detected with biotinylated goat anti-human Fc and streptavidin-HRP, absorbance at 405 nm [panel ULBP2]
human Fc-NKG2D [2] = molecular target: T3, human Fc-NKG2D; assay: SPR (BIAcore 2000), human Fc-NKG2D immobilized on chip
human Fc-NKG2D [3] = molecular target: T3, human Fc-NKG2D; assay: SPR (BIAcore 2000), human Fc-NKG2D immobilized on chip; koff/kon
mouse Fc-NKG2D = molecular target: T4, mouse Fc-NKG2D; assay: ELISA, protein coated at 100 ng/well, Fab detected with goat anti-human Fab-HRP, absorbance at 405 nm
BSA = molecular target: T7, BSA (bovine, UniProt P02769); assay: as above
T7 construct: coated on the ELISA plate; also called bovine serum albumin
T7 sequence (P02769 25-607 limits assumed): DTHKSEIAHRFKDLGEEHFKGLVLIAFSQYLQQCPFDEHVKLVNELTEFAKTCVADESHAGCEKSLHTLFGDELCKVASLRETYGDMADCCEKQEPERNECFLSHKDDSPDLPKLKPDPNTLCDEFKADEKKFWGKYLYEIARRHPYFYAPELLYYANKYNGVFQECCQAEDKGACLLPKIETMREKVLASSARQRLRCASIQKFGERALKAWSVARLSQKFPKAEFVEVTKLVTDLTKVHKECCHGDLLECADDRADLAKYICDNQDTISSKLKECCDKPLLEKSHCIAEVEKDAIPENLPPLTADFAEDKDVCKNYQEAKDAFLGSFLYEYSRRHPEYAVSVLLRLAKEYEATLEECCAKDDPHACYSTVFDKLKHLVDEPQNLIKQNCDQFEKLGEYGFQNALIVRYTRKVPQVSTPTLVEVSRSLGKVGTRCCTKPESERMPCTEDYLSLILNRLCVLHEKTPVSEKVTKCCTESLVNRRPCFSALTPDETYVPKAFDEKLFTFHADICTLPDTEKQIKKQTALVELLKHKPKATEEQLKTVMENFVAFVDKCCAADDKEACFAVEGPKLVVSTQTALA

human CD22-Fc = molecular target: T5, human CD22-Fc; assay: as above
human CD23 = molecular target: T6, human CD23; assay: as above
human ULBP2-Fc = molecular target: B2; assay: as above
human Fc-NKG2D [4] = molecular target: T3, human Fc-NKG2D
human Fc-NKG2D [5] = molecular target: T3, human Fc-NKG2D; remark: listed apart in the source
human Fc-NKG2D [6] = molecular target: T3, human Fc-NKG2D; assay: SPR (BIAcore 2000), human Fc-NKG2D immobilized on chip; remark: listed apart in the source
human Fc-NKG2D [7] = molecular target: T3, human Fc-NKG2D; assay: SPR (BIAcore 2000), human Fc-NKG2D immobilized on chip; bivalent binding (virtual affinity, avidity)
human Fc-NKG2D [8] = molecular target: T3, human Fc-NKG2D; assay: SPR (BIAcore 2000), human Fc-NKG2D immobilized on chip; bivalent IgG

Binder	koff (human Fc-NKG2D [2]) [s⁻¹]	kon (human Fc-NKG2D [2]) [M⁻¹ s⁻¹]	Kd (human Fc-NKG2D [3]) [nM]	binding result (mouse Fc-NKG2D)	binding result (BSA)	binding result (human CD22-Fc)	binding result (human CD23)	binding result (human ULBP2-Fc)	Kd (human Fc-NKG2D [7]) [nM]	koff (human Fc-NKG2D [8]) [s⁻¹]	kon (human Fc-NKG2D [8]) [M⁻¹ s⁻¹]	also measured
B1	–	–	–	–	–	–	–	–	–	–	–	binding result (human MICA-Fc): binds; binding result (human MICB-Fc): binds
B2	–	–	–	–	–	–	–	–	–	–	–	binding result [1]: binds
KYK-1.0 Fab (Fab, V domains shown, Human Fab with human constant domains (lambda light chain) and a C-terminal (His)6 tag, expressed in E. coli from pC3C-His and purified by IMAC) VH: EVQLVESGGGVVQPGGSLRLSCAASGFTFSSYGMHWVRQAPGKGLEWVAFIRYDGSNKYYADSVKGRFTISRDNSKNTKYLQMNSLRAEDTAVYYCAKDRFGYYLDYWGQGTLVTVSS VL: QPVLTQPSSVSVAPGETARIPCGGDDIETKSVHWYQQKPGQAPVLVIYDDDDRPSGIPERFFGSNSGNTATLSISRVEAGDEADYYCQVWDDNNDEWVFGGGTQLTVL	0.037	1.4e+06	27	no binding (tested: not shown)	no binding (tested: not shown)	no binding (tested: not shown)	no binding (tested: not shown)	no binding (tested: not shown)	–	–	–	–
KYK-2.0 Fab (Fab, V domains shown, Human Fab (lambda) with human constant domains and a C-terminal (His)6 tag, expressed in E. coli from pC3C-His and purified by IMAC) VH: QVQLVESGGGLVKPGGSLRLSCAASGFTFSSYGMHWVRQAPGKGLEWVAFIRYDGSNKYYADSVKGRFTISRDNSKNTKYLQMNSLRAEDTAVYYCAKDRGLGDGTYFDYWGQGTTVTVSS VL: QSALTQPASVSGSPGQSITISCSGSSSNIGNNAVNWYQQLPGKAPKLLIYYDDLLPSGVSDRFSGSKSGTSAFLAISGLQSEDEADYYCAAWDDSLNGPVFGGGTKLTVL	0.0043	740000	5.8	no binding (tested: not shown)	no binding (tested: not shown)	no binding (tested: not shown)	no binding (tested: not shown)	no binding (tested: not shown)	–	–	–	Kd (human Fc-NKG2D [4]): 1.9 to 3 nM; koff (human Fc-NKG2D [4]): 0.0012 s⁻¹; kon (human Fc-NKG2D [4]): 450000 M⁻¹ s⁻¹; Kd (human Fc-NKG2D [5]): 1.9 to 3 nM; koff (human Fc-NKG2D [5]): 0.0018 s⁻¹; kon (human Fc-NKG2D [5]): 890000 M⁻¹ s⁻¹; fold improvement in affinity (Kd) over KYK-1.0 Fab (human Fc-NKG2D [6]): ~4.5 fold; fold slower dissociation compared to KYK-1.0 Fab (human Fc-NKG2D [6]): ~8.5 fold
KYK-2.0 IgG1 (antibody, V domains shown, It was biotinylated for flow cytometry on PBMC; also called KYK-2.0 IgG1λ; PIGG-KYK-2.0) VH: QVQLVESGGGLVKPGGSLRLSCAASGFTFSSYGMHWVRQAPGKGLEWVAFIRYDGSNKYYADSVKGRFTISRDNSKNTKYLQMNSLRAEDTAVYYCAKDRGLGDGTYFDYWGQGTTVTVSS VL: QSALTQPASVSGSPGQSITISCSGSSSNIGNNAVNWYQQLPGKAPKLLIYYDDLLPSGVSDRFSGSKSGTSAFLAISGLQSEDEADYYCAAWDDSLNGPVFGGGTKLTVL	–	–	–	–	–	–	–	–	0.38	0.00012	320000	–
KYK-1.0 IgG1 (antibody, V domains shown, Fully human IgG1 lambda; also called KYK-1.0 IgG1λ; PIGG-KYK-1.0) VH: EVQLVESGGGVVQPGGSLRLSCAASGFTFSSYGMHWVRQAPGKGLEWVAFIRYDGSNKYYADSVKGRFTISRDNSKNTKYLQMNSLRAEDTAVYYCAKDRFGYYLDYWGQGTLVTVSS VL: QPVLTQPSSVSVAPGETARIPCGGDDIETKSVHWYQQKPGQAPVLVIYDDDDRPSGIPERFFGSNSGNTATLSISRVEAGDEADYYCQVWDDNNDEWVFGGGTQLTVL	–	–	–	–	–	–	–	–	1.8	0.00056	310000	–

Reference: patent US20110150870A1 (UNITED STATES OF AMERICA AS REPRESENTED BY TH, published 2011)
